B1: Proline-serine-threonine phosphatase-interacting protein 1 (Homo sapiens), O43586 (parent)
chain: MMPQLQFKDAFWCRDFTAHTGYEVLLQRLLDGRKMCKDMEELLRQRAQAEERYGKELVQIARKAGGQTEINSLRASFDSLKQQMENVGSSHIQLALTLREELRSLEEFRERQKEQRKKYEAVMDRVQKSKLSLYKKAMESKKTYEQKCRDADDAEQAFERISANGHQKQVEKSQNKARQCKDSATEAERVYRQSIAQLEKVRAEWEQEHRTTCEAFQLQEFDRLTILRNALWVHSNQLSMQCVKDDELYEEVRLTLEGCSIDADIDSFIQAKSTGTEPPAPVPYQNYYDREVTPLTSSPGIQPSCGMIKRFSGLLHGSPKTTSLAASAASTETLTPTPERNEGVYTAIAVQEIQGNPASPAQEYRALYDYTAQNPDELDLSAGDILEVILEGEDGWWTVERNGQRGFVPGSYLEKL
partner: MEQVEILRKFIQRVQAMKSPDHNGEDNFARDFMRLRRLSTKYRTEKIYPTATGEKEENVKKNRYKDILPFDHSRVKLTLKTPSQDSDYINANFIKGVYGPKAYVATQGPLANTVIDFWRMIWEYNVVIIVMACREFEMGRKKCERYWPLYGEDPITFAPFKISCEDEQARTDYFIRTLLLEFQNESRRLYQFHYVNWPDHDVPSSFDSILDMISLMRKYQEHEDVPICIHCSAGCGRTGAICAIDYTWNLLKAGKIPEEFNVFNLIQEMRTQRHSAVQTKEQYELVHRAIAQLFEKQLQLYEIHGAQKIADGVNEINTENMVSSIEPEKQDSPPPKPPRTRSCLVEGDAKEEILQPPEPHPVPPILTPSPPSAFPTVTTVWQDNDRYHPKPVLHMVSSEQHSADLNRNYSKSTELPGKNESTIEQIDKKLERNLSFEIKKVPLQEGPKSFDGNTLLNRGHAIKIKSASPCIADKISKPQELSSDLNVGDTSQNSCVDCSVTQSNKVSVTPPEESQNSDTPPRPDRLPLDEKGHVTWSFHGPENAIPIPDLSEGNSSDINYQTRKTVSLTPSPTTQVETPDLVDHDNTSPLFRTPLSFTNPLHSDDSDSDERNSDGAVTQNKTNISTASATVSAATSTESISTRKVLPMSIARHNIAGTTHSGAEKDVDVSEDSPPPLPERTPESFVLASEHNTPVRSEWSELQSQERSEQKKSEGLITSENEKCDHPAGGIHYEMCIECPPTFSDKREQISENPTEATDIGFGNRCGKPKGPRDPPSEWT

Variants of: B1
Conditions: with ptn12_human PTPN12, Q05209

| Variant | effect of a mutation on the interaction |
| --- | --- |
| A230T | decreasing interaction |
| E250Q | decreasing interaction |

Source: IntAct's records for PubMed 11971877
